This note sets out measurements from publication PMC9684461, “RNA-controlled nucleocytoplasmic shuttling of mRNA decay factors regulates mRNA synthesis and a novel mRNA decay pathway” (Nature Communications, 2021).

B2: recombinant 6xHis-tagged Kap120 (natural protein, S. cerevisiae, UniProt Q02932 1-1032, looked up)
chain: MASSLNELNLVQVLEQASNPQHIRSDVQKLAEQQLRQWETQAGFHYLLQSIYLNLSNSLQIRWLAVIQFKNGVDKYWRSTRINAIPKDEKASIRGRLFEMIDEQNNQLCIQNAQASARIARLDFPVEWPTLFEDLENLLNDEIIRKDSVKIYNILMHINQIVKVLGTARIGRCRPAMQSKVPLILPLIVRIYLQSFEEWTTSSNLNYEDLSSLQVSYLALKVLRRIICEGYDRPQTDQSVCDFIKLSVSHFEMLISNHENFKKFDIYEKFIKCLGKLYFNLVTGSPANFILLPCSTQILITYTRLIFDKAPKVYRENSDVTGDFWEQTAIRGLLILKRVINFIHKKGAITLKARSDKLTIDASINKINTEFLNENLITRLVDTLMEWYLRLRPTELENWFMDPEEWINEQMATSYEYQIRPCAENVFQDLMNTFSELLVPYLLKKIENDASKLSNSLDDFLRKDAIYASFQLSASAVSEMVDFDRLLIQVFLPEATNTNISGDELRIIRRRVALIINEWSTVKCSEESKSLCYKLFTNFLTDEDDKVVLLTTVQTVRTMVDDWNFNKDTFQPFLTENVHLLLRKILPSVSLTETRLYVLNTLSDIIIQTKPLISRDLLVEILQIIPNLWEIATNNASEAILANALLRLLRNLVSSLGSQSHLTWDIAIPVVALACDPSSMQYQLLSEDGYELWGMLLQNFSSHDQEFDDKFVELVPFLKYGIETHTEILPTLLEIIKSYALILNPVDFFSNNTFQDIFKQMSKYLLKLREDSFQLVLEIWEILILSNESDYENLLLQKFYETGVLSALFDAIFLEEAPSSYLCSQIIQIIARISYVNPDALMTFLATYHDNLPTSNENARMPESIRKIVSKDQTYDSVVNKLLTGWIVCFRDIFDPKFKKVHILGISSLLRTGLVPILTEFSSIASLWIEMLEEINETNRGDCEKYHLNDIVTEQSIAFHPLTAEQLRYHQLCKNNDPVHNISLKDFISQSMEYLESHLGVERYQEFLKTINPSLLENLQMFLSIQPQEARP
notes: karyopherin (importin) Kap120 of S. cerevisiae; also called Kap120-6xHis; Kap120-His; source: E. coli, IPTG induced, purified (Ni-NTA)

In data set [1] the target is B2. Kind of data set: pull-down; purified Kap120-6xHis mixed with purified Xrn1-FLAG (WT or mutant), 1 h at 4 °C in a rotator; complex captured on Ni-NTA, Western blotting; Xrn1-FLAG intensity normalized to Kap120. For orientation: In western blotting, separated proteins are transferred to a membrane and probed.
For data set [2], the target named is T1, TAP-tagged Kap120 (S. cerevisiae, UniProt Q02932 1-1032).
T1 construct: karyopherin Kap120 of S. cerevisiae, TAP-tagged, expressed in yeast; also called Kap120-TAP; source: yeast, in extract, captured on IgG-sepharose
T1 sequence (looked up): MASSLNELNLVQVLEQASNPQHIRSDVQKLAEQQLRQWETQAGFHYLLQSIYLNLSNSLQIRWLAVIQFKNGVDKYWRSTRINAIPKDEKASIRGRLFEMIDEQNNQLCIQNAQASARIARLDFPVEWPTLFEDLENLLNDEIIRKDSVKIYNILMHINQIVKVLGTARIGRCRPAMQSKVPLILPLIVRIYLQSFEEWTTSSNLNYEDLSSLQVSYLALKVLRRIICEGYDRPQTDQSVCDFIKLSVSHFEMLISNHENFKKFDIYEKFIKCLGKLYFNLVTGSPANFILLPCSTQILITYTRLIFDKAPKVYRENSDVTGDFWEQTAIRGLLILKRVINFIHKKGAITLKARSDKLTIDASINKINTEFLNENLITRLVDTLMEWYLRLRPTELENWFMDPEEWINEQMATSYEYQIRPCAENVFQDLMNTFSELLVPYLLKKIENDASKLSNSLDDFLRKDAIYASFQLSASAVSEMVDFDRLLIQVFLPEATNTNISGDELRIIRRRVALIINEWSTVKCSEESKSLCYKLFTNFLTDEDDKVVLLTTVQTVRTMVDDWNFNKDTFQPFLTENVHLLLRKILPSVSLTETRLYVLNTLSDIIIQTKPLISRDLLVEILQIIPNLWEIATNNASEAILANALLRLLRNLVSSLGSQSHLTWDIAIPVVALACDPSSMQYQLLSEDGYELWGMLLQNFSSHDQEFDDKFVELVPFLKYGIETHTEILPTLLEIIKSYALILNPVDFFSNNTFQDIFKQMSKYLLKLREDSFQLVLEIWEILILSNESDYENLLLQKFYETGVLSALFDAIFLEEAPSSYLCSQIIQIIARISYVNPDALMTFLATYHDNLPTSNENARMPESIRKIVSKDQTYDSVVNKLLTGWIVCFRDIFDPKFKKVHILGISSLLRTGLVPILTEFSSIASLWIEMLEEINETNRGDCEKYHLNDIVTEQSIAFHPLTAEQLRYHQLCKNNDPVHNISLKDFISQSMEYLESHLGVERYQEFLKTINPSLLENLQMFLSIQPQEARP
In words: co-IP; TAP-tagged Kap120 affinity purified with IgG-sepharose from extract of optimally proliferating yeast (WT or Xrn1^ΔNLS1/2 cells); co-IPed proteins by Western blotting; signals normalized to Kap120. The note with it: partners not purified.

Data set [3] has as its target Xrn1 WT (Saccharomyces cerevisiae, UniProt P22147 1-1528). Kind of data set: pull-down on FLAG beads, competition by Kap120; Kap120 prevents RNA binding dose-dependently; EMSA: 50 mM Tris-HCl pH 7.4, 150 mM NaCl, 2 mM DTT, 1 mM EDTA, 30 min at room temperature, 6% native PAGE in 0.5x TBE; pull-downs with RNA: 2 mM EDTA, 1 h at 4. The note with it: protein: native; tags: FLAG; label: Cy3.

In data set [4] the target is T2, FLAG-tagged Xrn1 (wild type) (S. cerevisiae, UniProt P22147 1-1528).
T2 construct: 5' to 3' exonuclease Xrn1 (alias Kem1) of S. cerevisiae, called full-length Xrn1 for the FLAG-tagged purified protein; also called Xrn1-FLAG; Xrn1^WT; source: genomically FLAG-tagged strain, in lysate, for the IP with mass spectrometry
T2 sequence (P22147 whole entry): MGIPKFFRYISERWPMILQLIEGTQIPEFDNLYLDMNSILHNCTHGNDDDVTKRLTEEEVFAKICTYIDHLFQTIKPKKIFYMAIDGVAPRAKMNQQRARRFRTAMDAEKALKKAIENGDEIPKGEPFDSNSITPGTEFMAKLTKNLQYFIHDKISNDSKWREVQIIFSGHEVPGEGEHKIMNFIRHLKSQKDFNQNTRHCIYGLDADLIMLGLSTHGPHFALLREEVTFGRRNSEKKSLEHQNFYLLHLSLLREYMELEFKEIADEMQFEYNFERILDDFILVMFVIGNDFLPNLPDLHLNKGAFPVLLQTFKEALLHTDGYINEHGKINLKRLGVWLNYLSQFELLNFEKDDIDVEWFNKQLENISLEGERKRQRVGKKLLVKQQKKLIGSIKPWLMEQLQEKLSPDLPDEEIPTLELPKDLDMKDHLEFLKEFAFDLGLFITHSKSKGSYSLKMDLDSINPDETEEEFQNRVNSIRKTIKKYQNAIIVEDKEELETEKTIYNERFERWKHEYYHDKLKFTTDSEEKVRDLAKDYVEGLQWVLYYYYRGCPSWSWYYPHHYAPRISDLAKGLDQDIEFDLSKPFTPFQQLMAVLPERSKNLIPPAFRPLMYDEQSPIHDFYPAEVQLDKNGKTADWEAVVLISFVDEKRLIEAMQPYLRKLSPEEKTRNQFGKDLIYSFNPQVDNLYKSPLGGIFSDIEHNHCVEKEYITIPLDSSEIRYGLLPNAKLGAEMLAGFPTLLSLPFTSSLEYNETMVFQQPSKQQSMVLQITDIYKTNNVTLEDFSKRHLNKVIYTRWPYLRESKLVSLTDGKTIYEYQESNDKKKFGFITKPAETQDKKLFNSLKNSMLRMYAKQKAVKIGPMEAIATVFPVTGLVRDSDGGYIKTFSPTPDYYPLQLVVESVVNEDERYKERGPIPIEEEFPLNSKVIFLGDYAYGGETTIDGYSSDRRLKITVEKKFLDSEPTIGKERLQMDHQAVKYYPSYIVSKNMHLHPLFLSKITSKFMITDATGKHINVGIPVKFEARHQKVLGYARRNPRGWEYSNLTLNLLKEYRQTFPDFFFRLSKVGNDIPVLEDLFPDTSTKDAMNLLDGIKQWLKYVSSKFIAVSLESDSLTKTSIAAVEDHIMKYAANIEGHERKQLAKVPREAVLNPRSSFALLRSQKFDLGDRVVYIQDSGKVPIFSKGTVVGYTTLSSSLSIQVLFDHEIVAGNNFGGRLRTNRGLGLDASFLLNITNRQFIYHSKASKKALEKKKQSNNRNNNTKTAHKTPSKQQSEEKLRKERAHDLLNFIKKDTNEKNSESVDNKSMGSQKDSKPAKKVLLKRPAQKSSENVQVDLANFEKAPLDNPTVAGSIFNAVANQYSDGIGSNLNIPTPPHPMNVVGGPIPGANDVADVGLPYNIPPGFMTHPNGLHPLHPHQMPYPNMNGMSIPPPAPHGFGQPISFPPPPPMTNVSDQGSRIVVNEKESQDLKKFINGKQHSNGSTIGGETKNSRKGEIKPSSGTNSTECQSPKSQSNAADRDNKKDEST
In words: pull-down; purified Kap120-6xHis mixed with purified Xrn1-FLAG (WT or mutant), 1 h at 4 °C in a rotator; complex captured on Ni-NTA, Western blotting; Xrn1-FLAG intensity normalized to Kap120. To be noted: both partners purified.

Data set [5] has as its target B2. Kind of data set: pull-down; GFP-tagged Tail held on GFP-Trap resin in a small column, washed 3 times; purified Kap120-His added, 1 h at 4 °C; eluted with 2X LSB at 95 °C. The note with it: both partners purified.

Xrn1 WT, sequence (P22147 whole entry): as above

Turning to “FLAG-tagged Xrn1^ΔNLS1/2 (from UniProt P22147 1-1528) (enzyme)”, in data set [1], the fold weaker than Xrn1^WT-Kap120 came to 4.5 fold.

B1: Dhh1 (natural protein, S. cerevisiae (endogenous in yeast), UniProt P39517 1-506, looked up)
chain: MGSINNNFNTNNNSNTDLDRDWKTALNIPKKDTRPQTDDVLNTKGNTFEDFYLKRELLMGIFEAGFEKPSPIQEEAIPVAITGRDILARAKNGTGKTAAFVIPTLEKVKPKLNKIQALIMVPTRELALQTSQVVRTLGKHCGISCMVTTGGTNLRDDILRLNETVHILVGTPGRVLDLASRKVADLSDCSLFIMDEADKMLSRDFKTIIEQILSFLPPTHQSLLFSATFPLTVKEFMVKHLHKPYEINLMEELTLKGITQYYAFVEERQKLHCLNTLFSKLQINQAIIFCNSTNRVELLAKKITDLGYSCYYSHARMKQQERNKVFHEFRQGKVRTLVCSDLLTRGIDIQAVNVVINFDFPKTAETYLHRIGRSGRFGHLGLAINLINWNDRFNLYKIEQELGTEIAAIPATIDKSLYVAENDETVPVPFPIEQQSYHQQAIPQQQLPSQQQFAIPPQQHHPQFMVPPSHQQQQAYPPPQMPSQQGYPPQQEHFMAMPPGQSQPQY
notes: mRNA decay factor Dhh1 of S. cerevisiae, detected with anti-Dhh1 antibodies; source: endogenous, yeast extract
Consider B1, for which the “fold reduction of the co-IP in Xrn1^ΔNLS1/2 cells against WT cells” value in data set [2] is approximately 5 fold.
As for AUGUACAGUCCGACGAACACGGAGUCGACCCGCAACGCGA (ssRNA) [Cy3-labeled 40 b RNA], the binding result in data set [3] is “binds”.
As to B2, the binding result in data set [4] is listed as “binds”.

B3: GFP-tagged Tail of Xrn1 (domain or fragment, S. cerevisiae, UniProt P22147 351-521, looked up)
chain: EKDDIDVEWFNKQLENISLEGERKRQRVGKKLLVKQQKKLIGSIKPWLMEQLQEKLSPDLPDEEIPTLELPKDLDMKDHLEFLKEFAFDLGLFITHSKSKGSYSLKMDLDSINPDETEEEFQNRVNSIRKTIKKYQNAIIVEDKEELETEKTIYNERFERWKHEYYHDKLK
notes: holds NLS1; also called Tail-GFP; linker domain; source: yeast, expressed under ADH1 promoter and terminator; pulled down with GFP-Trap resin and washed
Turning to B3, the binding result in data set [5] is on record as “binds”.

B4: Pat1 (natural protein, S. cerevisiae (endogenous in yeast), UniProt P25644 1-796, looked up)
chain: MSFFGLENSGNARDGPLDFEESYKGYGEHELEENDYLNDETFGDNVQVGTDFDFGNPHSSGSSGNAIGGNGVGATARSYVAATAEGISGPRTDGTAAAGPLDLKPMESLWSTAPPPAMAPSPQSTMAPAPAPQQMAPLQPILSMQDLERQQRQMQQQFMNFHAMGHPQGLPQGPPQQQFPMQPASGQPGPSQFAPPPPPPGVNVNMNQMPMGPVQVPVQASPSPIGMSNTPSPGPVVGATKMPLQSGRRSKRDLSPEEQRRLQIRHAKVEKILKYSGLMTPRDKDFITRYQLSQIVTEDPYNEDFYFQVYKIIQRGGITSESNKGLIARAYLEHSGHRLGGRYKRTDIALQRMQSQVEKAVTVAKERPSKLKDQQAAAGNSSQDNKQANTVLGKISSTLNSKNPRRQLQIPRQQPSDPDALKDVTDSLTNVDLASSGSSSTGSSAAAVASKQRRRSSYAFNNGNGATNLNKSGGKKFILELIETVYEEILDLEANLRNGQQTDSTAMWEALHIDDSSYDVNPFISMLSFDKGIKIMPRIFNFLDKQQKLKILQKIFNELSHLQIIILSSYKTTPKPTLTQLKKVDLFQMIILKIIVSFLSNNSNFIEIMGLLLQLIRNNNVSFLTTSKIGLNLITILISRAALIKQDSSRSNILSSPEISTWNEIYDKLFTSLESKIQLIFPPREYNDHIMRLQNDKFMDEAYIWQFLASLALSGKLNHQRIIIDEVRDEIFATINEAETLQKKEKELSVLPQRSQELDTELKSIIYNKEKLYQDLNLFLNVMGLVYRDGEISELK
notes: mRNA decay factor Pat1 of S. cerevisiae, detected with anti-Pat1 antibodies; source: endogenous, yeast extract
With B4, the “fold reduction of the co-IP in Xrn1^ΔNLS1/2 cells against WT cells” value in data set [2] was approximately 5 fold.
